These results are taken from the nanobody polyreactivity screen of Harvey et al. (2022).

This series in a line: yeast display, Sf9 membrane polyspecificity reagent, FACS + sequencing; frameworks hold sequencing errors. The gist of the method: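 Using colony PCR, genes from sorted yeast display clones were amplified, then sequenced on MiSeq at 2 × 250 and filtered by CDR length. The clones had been stained with 10% biotinylated, detergent-solubilized Sf9 membrane reagent for 1 hour at 4 °C and sorted by FACS into low and high (top ~1%) gates on anti-HA and streptavidin fluorescence. Polyreactivity labels come from the gate of origin.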
For “EDQLGESGGGLVQAGGSLRLSCAASGRTFYSYARGWSRQAPVKERELVAGINGGGSTYYADSVKGRFTISRDNAKNTVYLQMNSLKPEDSPVYYCAARRYDIRYYYVTYRPPKMYYWGQGTQVTVSS”, the “polyreactivity (PSR sort gate)” value was “high polyreactivity”.

Regarding “EEELVESGGGFVQVGGSLRLSCAASGSIFVENAMGWYRQAPGKARELVAAITSGGSTNYADSVKGRFTISRDNAKNTVYLQMNSLKPEDTAVYYCNADENYGYYTHFGYWGQGTQVTVSS”, the “polyreactivity (PSR sort gate)” value is “low polyreactivity”.

As for “EEELVESGGGLVQAGGSLRLSCAASGRTFVYNAMGWYRQAPGKERELVATITRGVSTNYADSVKGRFTISRDNAKNTVYLQMNSLKPEDTAVYYFAAVWYYQFGVWGYYWGQGTQVTVSS”, the “polyreactivity (PSR sort gate)” value is “low polyreactivity”.

On to “EVQIVESGGCLVQAGGSLGIRCAASGRIFNIYAMGWYRQAPGKERELFAAISRGGGSKYYADSVKGRFTISRDNAKKTVDLQLNRLKPVDTAVYYCNTDRFPSGRIHRYNYWGQGTQVSVSS”, for which the “polyreactivity (PSR sort gate)” value is recorded as “low polyreactivity”.

In the case of “EVQLVESGGGLLQPGGSLRVSFAASGYIYSRYRMGWYRQAPGKGREFVAAISGGSSTNYADSVKGRFTISRDNSKNTVFLQMNSLRAEDTAVFYCADFKIDSDPRVYWGQGTQVTVSS”, the “polyreactivity (PSR sort gate)” value is reported as “low polyreactivity”.

“EVQLVESGGGLVQAGGSLRLSCAASGFIFVSYAMGWYRQAPGKERELVAAISWSGGNTYYADSVKGRFTISRDNAKNTVYLQMNSLKPEDTAVYYCNTDKRSYPTHRRDFGYWGQGTQVTVSS”: the “polyreactivity (PSR sort gate)” value is on record as “low polyreactivity”.

On to “EVQLVESGGGLVQAGGSLRLSCAASGGTFRYYAMGWSRQAPGKERELVASSSSGGSTNYADSVKGRFTISRDNAKNTVYLQMNRLKPEDTAVYYCARRRFYYGHHPGSSWYDYWGQGTQVSVSS”, for which the “polyreactivity (PSR sort gate)” value is listed as “low polyreactivity”.

With “EVQLVESGGGLVQAGGSLRLSCAASGRIFKYYTMGWYRQAPGKERELVAAISRDDSTNYADSVKGRFTISRDNAMNTVYLQMNSLKPEDTAVYYCAKGYHQYAGFYYWGQGTQVTVSS”, the “polyreactivity (PSR sort gate)” value was “high polyreactivity”.

With “EVQLVESGGGLVQAGGSLRLSCAASGRTFNRYTMGWYRQAPGKERELVAAISRGAGTNYADSVKGRFTISRDNAKNTVYVQMNSLKPEDTAVYYCNARPYGWYASHEYGYWGQGTQVTVSS”, the “polyreactivity (PSR sort gate)” value is “high polyreactivity”.

As for “EVQLVESRGGLVQAGGSLRLSSADSGLTFPYNTMGWYRQAPGTERELVAAITARGGRTYYADSVKGRFTISRDNAKNTVYLQMNSLKPEDTAVYYCNADRTRGYQRYDYWGQGTQVTVSS”, the “polyreactivity (PSR sort gate)” value is recorded as “high polyreactivity”.

As to “HAQLQESGGGMVQAGGSLRRSCAASGSIILFSGMGWYRRARGKERELVASIGFGSITYYADRVKGRFTISRDNANNTVYLQMNSLKPEDTAVYYCAVQVQDESWLDYWGQGTQVTVSC”, the “polyreactivity (PSR sort gate)” value was “low polyreactivity”.

For “HDHLVESGAGLVQAGGSLRLSCAASGLIFPSNAMGWYRQAPGKERELVAAITNGGRTYYADSVKGRFTISRDNATNTVYLQMNSMKPEDTSVYYCNAGYTYRGYWSYGYWGQGTQVTVSS”, the “polyreactivity (PSR sort gate)” value is on record as “high polyreactivity”.

With “HFQREESGGGLVQAGGSLRLTCAASGSTFGPYVMGWYRQARGKERELVAAISDTTGNTYYADSVKGRFTLSRDNAKNTVYLQMNSLKPEDTAVYYCNVDWYWGDYDYRGQGTQVTVSS”, the “polyreactivity (PSR sort gate)” value is recorded as “low polyreactivity”.

With “HLQLVESGGGLVQAGGSLRLSCAASGRIFPGYAMGWYRQAPGKERELVAAIDGTGTSTYYADSVKGRFTISRDNAKNTVDLQMNSLNPEDTAVYYCAADGRPRGTFGYWGQGTQVTVSS”, the “polyreactivity (PSR sort gate)” value is on record as “low polyreactivity”.

Consider “HLQMQESGGGLVQAGGSLRLSCASSGSIFQATYMGWYRQAPGKEREFVASITYGSITNYADSVKGRFTIGRDNAKDTLYLQMNSLKPEDTAVYYCAVDRHYIPAFHYWGQGTQVTVSS”, for which the “polyreactivity (PSR sort gate)” value was “low polyreactivity”.

“HVHQQGSGGGLAQARDSLRLSCAASGTNFSEYNNGLVSQGAGQRTRTCCRYWCWGNTYYADSAKGRLTSSRDNAKYNVDLQKNSLKPEDTAVYYCAFILPYPSRHIDRGQGTQVTVSS”: the “polyreactivity (PSR sort gate)” value was “high polyreactivity”.

Take “HVKLQESCGGLVPAGGSLRLSSAASATISYARNMASYLQAPGTERELVAAIDRGASTYYADSVKGLFTISRDNAKNTVYLQIYSLKPEDTAVYYCAAEYHDRWEDRYWGQGTQGTVSS”: the “polyreactivity (PSR sort gate)” value is listed as “high polyreactivity”.

Regarding “HVLLQESGGGLVQAGGTLRLSCAASGTITTDIRMGWYRLAPGKEREFVASIDGCSTTYYADSVKGRFTISRDNAKNTVYLQMNSLKPEDTAMYYCAAREATEFYLFYWGQGTQVTVSS”, the “polyreactivity (PSR sort gate)” value is “low polyreactivity”.

In the case of “HVNLVESGGGLVKAGGSLRLTCDASGITFYEYAMGRYRRAPGKELELVAGIRLSGSTTYYADSVKGRFTISRDNSKNTVYLQMHSLKPEDTAVYYCNVDYYSGLYDYDSWGQGTQVTVSS”, the “polyreactivity (PSR sort gate)” value is “low polyreactivity”.

For the sequence “HVQLEESGGGLVQAGGSLRLSCAASGSISRANPSGWSRTAPGKERELLPANSRGGTTTYYADSVKGRFTISRDNAKNTVYLQMNSLKPEDTAVYYCAAVAGGGFPRWRIYFWPKGDYWGQGTQVTVSS”, the “polyreactivity (PSR sort gate)” value was “high polyreactivity”.

Turning to “HVQLGESGGGLVQAGGSLRLSCAASGSTFFPYAMGRYRQAPGKEMELVAAISYSGDSTYYADSVKGRFTISRDTAKNTVYLQMNSLKPEDNAVYYCNAVYFRYRYKYWGQGSQVTVSS”, the “polyreactivity (PSR sort gate)” value is “high polyreactivity”.

Turning to “HVQLQESGGGLVLAGGSLRLSCPASGNIVVYSYMGWYRQAPGKAREFVAAIGAGSTTYYADSVSRFTISRDNAKNSVYLQMNSLKQVDTAVYYCSVEFQYAGFWYWGQGTQVTVSS”, the “polyreactivity (PSR sort gate)” value is recorded as “low polyreactivity”.

In the case of “HVQLQESGGGLVQAGGSLRLSCAASGNISYSRNMGWYRQAPGKERELVAAIDRGAITYYADSVKGRFTISRDNAKNTVYLQIYSLKPEDTAVYYCAAEYHDRGDHRYWGQGTQVTVSS”, the “polyreactivity (PSR sort gate)” value is listed as “high polyreactivity”.

As to “HVQLQESGGGLVQAGGSLRLSSAASATITYSRNMGWYRQAPGKELELVAAIDRGAITYYADSVKGRFTISRDNAKNTVYLHIYSLKPEDTAVYYCAAVYHDRWDHRFWGQGTQVTVSS”, the “polyreactivity (PSR sort gate)” value was “high polyreactivity”.

With “HVQLQESGGGLVQAGGSLRQSCAASGYIFPYYSMGLYRQAPGKERGLVACIAAGTTTNYADSVKGRFTISRDNAKNTVYLQMNSLKPEDAAVYYCAALNAFNTGHWYWGQGTQVTVSS”, the “polyreactivity (PSR sort gate)” value is on record as “low polyreactivity”.

For the sequence “HVQLQESGGGLVQAGGSMRLTCAASGQKSSYYSMGWNRQAPGKEREFVATIAVGGTTNYADSVKGRFTISRDNAKNTVYLQMNSLKPEDTAVCFCAANSTQYTWFDYWGQGTQVPVSS”, the “polyreactivity (PSR sort gate)” value is “low polyreactivity”.

“HVQLQESGGGLVQVGGSLRLSCAASGTIFIYGFLGWNRQAPGKERELVASINLGGITNYADSVKGRFTIRRDNAKNTVYLQMISLKPEDTAVYYCAAYVVTGQNYGYWGQGTQVTVSS”: the “polyreactivity (PSR sort gate)” value was “low polyreactivity”.

Take “HVQLQESGGVLVQARGSLRLSCAASGNISYSRNMGWYRQAPGKERELVDAIDRGAITYYADSVKGRFTISRDNANNTVYLQIYSLKPEDSAVYYCAAEYHDRWDHRYWGQGSQVTVSS”: the “polyreactivity (PSR sort gate)” value is recorded as “high polyreactivity”.

On to “HVQLVDSGAGLVQAGGSLRLSCAASGRTFAYYAMGWYREATRKERELVAAIDSSGGSTYYADSVKGRFTISRDNAKNTVYLQMNSLKPEDTAVYYCAASYPYDRYDQGGYGYWGQGTQVTVSS”, for which the “polyreactivity (PSR sort gate)” value was “low polyreactivity”.

In the case of “HVQLVESAGGLVQAGGSLSLSCAASGSTFKLYAMGRYRQAPGKESEFVAGISWRGGSTYYADSVKGRFTISRDNAKNTVYFQMNSLKPEDTAVYYCAARSFSNIGYHGYGYWGQGTQVTVSS”, the “polyreactivity (PSR sort gate)” value is recorded as “high polyreactivity”.

On to “HVQLVESGAGLVQAAGSLRLSCAASGRPLDSNAMGGYRQAPGKDRELVAAITYSGGSTYYADSVKGRFTISRDNAKNTVYLQMNSLKPEDTAVYYCAKVGRLYRVGGYDYWGQGTQVTVSS”, for which the “polyreactivity (PSR sort gate)” value is listed as “low polyreactivity”.

Take “HVQLVESGGGFVQAAGSLRLSCAASGSIFAGYAMGWYRQAPGKERELVAAINSSGGSTYYADSVKGRFTISRDNSKNTVYLQMKSLKPEDTAVYDCNRVYKRYYIGGYDYWGQGTQVTVSS”: the “polyreactivity (PSR sort gate)” value is given as “high polyreactivity”.

Consider “HVQLVESGGGLVQAGASLRLICAASGRIFWGYAMGWSRHAPGKERELVAGITYSGGSTYYADSVKGRFTISRDNAKNTVYLQMNSLKPEDTADYYCAAAKSYRSGSWYEYWGQGTQVTVSS”, for which the “polyreactivity (PSR sort gate)” value is listed as “high polyreactivity”.

Regarding “HVQLVESGGGLVQAGGILRLSCAASGRIFYRYEKGWYRQAPGKERELVAAITAGGNKYYADSVKGRFTISRDNAKNTVYLQMNSLKPEDTAVDYCGAGTTYSRYSVTRVDYWGQGTQVTVSS”, the “polyreactivity (PSR sort gate)” value is listed as “high polyreactivity”.

Consider “HVQLVESGGGLVQAGGRLRLSCAASGRTFWYYTMGWYRQAPGKDRELVAAITSVGSTYYADSVKGRFTISRDNAKNTVYLQMNSLKPEDTAVYYCAKLYSYTHQSFDHWGQGTQVTVSS”, for which the “polyreactivity (PSR sort gate)” value is on record as “high polyreactivity”.

As to “HVQLVESGGGLVQAGGRLRLSCAPSGSIFGLYGMGWYRQAPGKEREFVAAISQSGGRTYYADSVKGRFTISRDNAQNTVYLQMNSLKPEDTAVYYCATYVQRRGQYGIYDYWGQGTQVTVSS”, the “polyreactivity (PSR sort gate)” value is reported as “high polyreactivity”.

In the case of “HVQLVESGGGLVQAGGSLRISCAASGRIFSTYTMGWYRQAPGKERELVAAIRANCGSTYYADSVKGRFTISRDNAKNTVYLQMNSLKPEDTAVYYCAALYRRYPYHYDSWGQGTQVTVSS”, the “polyreactivity (PSR sort gate)” value was “high polyreactivity”.

For “HVQLVESGGGLVQAGGSLRLSCAASGFTFDYNTMGWSRQAPGKEREVVAGISRGGGSTYYADSVKGRFTISRDNAKNTVYLQMNSLKPEDTAVYYCNTVLKRQRKNEYWGQGTQVTVSS”, the “polyreactivity (PSR sort gate)” value is “high polyreactivity”.

Consider “HVQLVESGGGLVQAGGSLRLSCAASGFTFNYNALGGYRQAPGKERELVAAIRRSGGSTYYADSVKGRFTISRDNAKNTVYLQMNSLKPEDTAVYYGAARQSFLYGDWGQGTQVTVSS”, for which the “polyreactivity (PSR sort gate)” value was “high polyreactivity”.

On to “HVQLVESGGGLVQAGGSLRLSCAASGFTFSGYVMGWYRQAPGKERELVAAISNSGGRTYADSVKGRFTISRDNAKNTVYLQMNSLKPEDTAVYYCAKKPGGFSQASRVDYDYWGQGTQVTVSS”, for which the “polyreactivity (PSR sort gate)” value was “low polyreactivity”.

As to “HVQLVESGGGLVQAGGSLRLSCAASGFTVYRYTLGWYRQAPGKERELVAAITWSGGNTYYADSVKGRFTISRDNAKNTVYLQMNSLKPEDTAVYYCAAYKPYSKSNYRGQGTQVTVSS”, the “polyreactivity (PSR sort gate)” value is recorded as “high polyreactivity”.
